Data: patent US10533231B2, “Artificial bioluminescent enzyme” (NATIONAL INSTITUTE OF ADVANCED INDUSTRIAL SCIENCE AND …, priority 2012, dated 2020)
Residue numbers refer to the chain shown, from its start. Entries after “also recorded” stand apart in the source; their conditions may differ.

B1: ALuc21: artificial luciferase, SEQ ID NO: 26 (protein)
chain: MMGIKVLFALICFALVQANATINEEDIDLVAIGGSFATTDLETDLFTIVEDMNVISRDTDVDANRADRGRRGKLPGKKLPLEVLKELEANAQKAGCTRGCLICLSHIKCTAKMKKWLPGRCESWEGDKETGQGGIGEAIVDIPEIPGFKDLEPMEQFIAQVDLCVDCTTGCLKGLANVKCSDLLKKWLPSRCATFASKIQAQVDKIKGAGGS
modifications: Synthetic ALuc21
B2: ALuc26: artificial luciferase, SEQ ID NO: 28 (protein)
chain: MMGVKLIFAVLCVAVAQANATINENFEDIDLVAIGGSFADLETDLFTIVEDMNVISRDTDVDANRGGRGRRGKLPGKKLPLEVLKELEANAQKAGCTRGCLICLSHIKCTAKMKKWLPGRCESWEGDKETGQGGIGEAIVDIPEIPGFKNLAPMEQFIAQVDLCADCTTGCLKGLANVKCSNLLKKWLPSRCAGFANKIQAQVDTIKGLGGS
modifications: Synthetic Aluc26
B3: ALuc29: artificial luciferase, SEQ ID NO: 31 (protein)
chain: B2 chain with N150W, K179W, N182W, N197W
modifications: Synthetic ALuc29
B4: ALuc28: artificial luciferase, SEQ ID NO: 30 (protein)
chain: B2 chain with N150Y, K179Y, N182Y, N197Y
modifications: Synthetic ALuc28
B5: ALuc27: artificial luciferase, SEQ ID NO: 29 (protein)
chain: B2 chain with N150F, K179F, N182F, N197F
modifications: Synthetic ALuc27
B6: ALuc17: artificial luciferase, SEQ ID NO: 24 (protein)
chain: MMGIKVLFALICFALVQANPTENKDDIDIVGVEGKFGTTDLETDLFTIVEDMNVISRDTDVDANRADRGRRGKMPGKKLPKAVLIELEANAQKAGCHRGCLICLSHIKCTAKMKEWLPGRCESWGGDKETGQAGIVGAIVDIPEIPGFKDLEPMEQFIAQVDLCVDCTTGCLKGLANVKCSDLLKKWLPSRCATFASKIQAQVDKIKGAGGS
modifications: Synthetic ALuc17
B7: ALuc18: artificial luciferase, SEQ ID NO: 14 (protein)
chain: MMGIKVLFALICFALVQANPTENKDDIDIVGVEGKFGTTDLETDLFTIVEDMNVISRDTDVDANRADRGRRGHGGLPGKKMPLEVLLELEANAQRAGCTRGCLICLSKIKCTAKMKKWLPGRCESWAGDKETGQGGITEEETVDIPEIPGFKDLEPMEQFIAQVDLCVDCTTGCLKGLANVKCSDLLKKWLPSRCATFASKIQAQVDKIKGAGGS
modifications: Synthetic ALuc18
B8: ALuc24: artificial luciferase, SEQ ID NO: 27 (protein)
chain: MMGIKVLFALICFALVQANPTENKDDIDIVGVEGKFGTTDLETDLFTIVEDMNVISRDTDVDANRADRGRRGKLPGKKLPLEVLKELEANAQKAGCTRGCLICLSHIKCTAKMKKWLPGRCESWEGDKETGQGGIGEAIVDIPEIPGFKNMAPMEQFIAQVDLCADCTTGCLKGLANVKCSNLLKKWLPSRCKGFANKIQAEVDTIKGLGGS
modifications: Synthetic ALuc24
B9: ALuc19: artificial luciferase, SEQ ID NO: 25 (protein)
chain: MMGIKVLFALICFALVQANPTENKDDIDIVGVEGKFGTTDLETDLFTIVEDMNVISRDTDVDANRADRGRRGRKLPGKKLPKEVLKILEANAQRAGCHRGCLICLSHIKCTAKMKQWLPGRCESWEGDKETGQGGIGGPIVDIGVLGPEIPGFKDLEPMEQFIAQVDLCVDCTTGCLKGLANVKCSDLLKKWLPSRCATFASKIQAQVDKIKGAGGS
modifications: Synthetic ALuc19
B10: ALuc15: artificial luciferase, SEQ ID NO: 12 (protein)
chain: MMGIKVLFALICFALVQANPTENKDDIDIVGVEGKFGTTDLETDLFTIVEDMNVISRDTDVDANRADRGKLPGKKLPLEVLKELEANAQKAGCTRGCLICLSHIKCTAKMKKWLPGRCESWEGDKETGQGGIGEAIVDIPEIPGFKDLEPMEQFIAQVDLCVDCTTGCLKGLANVKCSDLLKKWLPSRCATFASKIQAQVDKIKGAGGS
modifications: Synthetic ALuc15
B11: ALuc10: artificial luciferase, SEQ ID NO: 11 (protein)
chain: B10 chain with G3E, K5Q, D60N, V61L, D62A, A63N, N64S, R65D
modifications: Synthetic ALuc10

Tests used:
[1] = test system: artificial luciferase (ALuc); assay: Effects of heavy metal ions as additive for assay buffer (Example 2-3); format: cell-based; conditions: 1 ppm in HBSS buffer after C3 lysis
Experimental: This example examined the effects of a heavy metal ion as an additive for an assay buffer (FIG. 25). […] After 16-hour incubation in a CO2 incubator, 50 μL of a C3 solution was added to each well to allow for cell lysis for 20 minutes. 1 ppm of each type of heavy metal ion shown in FIG. 25 and 50 μL of a substrate-containing HBSS buffer were added to the lysate simultaneously, and the relative luminescence intensities were immediately measured with an LAS-4000. After the substrate-containing assay buffer was further added, the luminescence at the 8- and 16-minute point was measured to examine the luminescence stability.

COS-7 cells [2] = assay: Enzymatic activity confirmation of ALuc (section 3-1, 3-2); format: cell-based, African monkey; conditions: vs conventional copepod luciferases
Experimental: First, using a known lipid reagent for gene introduction, an expression vector encoding ALuc is introduced into African monkey-derived COS-7 cells; as a control, an expression vector having a known GLuc without any mutation into the cells is also introduced in the same manner. At a predetermined time (from 10 to 20 hours, for example, 16 hours) after the introduction of the vector, a cell lysate is prepared using a known lysis reagent.
Thereafter, the cell lysate is mixed with a known substrate solution containing coelenterazine, and its color intensity, temporal stability in luminescence, etc., are measured.
The luminescence intensity may be found by measuring the intensity at a specific wavelength using a known luminescence spectrophotometer after addition of a known substrate. By performing the measurement every minute, the temporal stability in luminescence can be evaluated. To measure a shift to a longer wavelength, scanning of the entire wavelength is necessary.

COS-7 cells [3] = assay: Comparison of luminescence intensity of ALucs (Example 1-2); format: cell-based, African green monkey; conditions: COS-7 cultured overnight, Promega assay solution, LAS-4000
Source text: The artificial luciferase (ALuc) genes synthesized by the above process were subcloned into mammalian cell expression vectors (pcDNA3.1 (+)). Each expression vector was transfected with African green monkey kidney-derived COS-7 cells, and the luminescence intensity, luminescence stability, and red-shifted degree of artificial luciferases (ALucs) were compared (FIGS. 2 to 5).
First, the luminescence intensity of artificial luciferases (ALucs) was compared (FIG. 2). For the comparison, COS-7 cells containing a vector encoding each luciferase were cultured overnight, and then the relative luminescence intensity was measured by using an assay solution, which is a mixture of a cell lysis solution and a substrate, produced by Promega, and a luminescence image analyzer (LAS-4000).

COS-7 cells [4] = assay: Luminescence stability of ALucs after substrate injection (Example 1-3); format: cell-based, African green monkey; conditions: Promega lysis and reaction solution
Experimental: The luminescence stability of the artificial luciferases (ALucs) of the present invention was examined in various respects (FIG. 3). COS-7 cells containing each luciferase gene were cultured for 9 hours, and treated with a cell lysis solution produced by Promega for 20 minutes. Temporal changes in luciferase luminescence intensity after the introduction of a substrate-containing reaction solution produced by Promega were observed every five minutes (FIG. 3A).
This experiment was expanded to artificial luciferases ALuc16 to ALuc25 (FIG. 3BC).

[5] = Prolonged activity stability of ALucs secreted in medium (Example 1-19); format: physicochemical; conditions: Day 0 to Day 25
Experimental: The prolonged activity stability of the artificial luciferases (ALucs) developed in the present invention was examined. First, a plasmid expressing each artificial luciferase (ALuc16, ALuc22, ALuc23, ALuc24, ALuc25, and ALuc30) (in the figure, each is referred to as A16, A22, A23, A24, A25, and A30) was introduced into COS-7 cells, and then culturing was continued for 24 hours. By the culturing, each artificial luciferase was secreted into the medium. The artificial luciferase secreted in the medium was collected, and a difference in enzymatic activity was measured under the same conditions in the following manner. On the first day (Day 0), 50 μL of assay solution (containing native coelenterazine, produced by Promega) was added to 5 μL of each medium, and the luminescence value (enzymatic activity) was measured using an LAS-4000 (produced by FujiFilm). In the same manner, the luminescence value on Day 8, Day 16, and Day 25 was compared with the luminescence value on Day 0 (FIG. 19 (A)).

[6] = Temporal change in luminescence after substrate injection, medium 25 days after expression (Example 1-19); format: biochemical; conditions: medium 25 days after expression
Experimental: 50 μL of an assay solution (containing native coelenterazine, produced by Promega) was added to 5 μL of each medium 25 days after the expression, and the luminescence value (enzymatic activity) was measured using an LAS-4000 (produced by FujiFilm).

Molecule	effect of heavy metal additive on luminescence intensity [1]	luminescence stability (general statement) (COS-7 cells [2])	further results
[Mo] [Mo(VI)]	–	–	comprehensive evaluation of luminescence intensity and stability [1]: excellent additives
[Al+3] [Al(III)]	suitable to be added to C3 and HBSS	–	comprehensive evaluation of luminescence intensity and stability [1]: excellent additives
[Cd+2] [Cd(II)]	significantly decrease the luminescence intensity	–	–
[Fe+3] [Fe(III)]	suitable to be added to C3 and HBSS	–	comprehensive evaluation of luminescence intensity and stability [1]: excellent additives
[Cu+2] [Cu(II)]	suitable to be added to C3 and HBSS	–	comprehensive evaluation of luminescence intensity and stability [1]: excellent additives
[Mg+2] [Mg(II)]	suitable to be added to C3 and HBSS	–	–
[Zn+2] [Zn(II)]	–	–	comprehensive evaluation of luminescence intensity and stability [1]: excellent additives
[Ni+2] [Ni(II)]	significantly decrease the luminescence intensity	–	–
[Co+2] [Co(II)]	significantly decrease the luminescence intensity	–	–
[Ca+2] [Ca(II)]	suitable to be added to C3 and HBSS	–	–
B1	–	remarkably stable luminescence signals	–
B2	–	remarkably stable luminescence signals	–
B3	–	remarkably stable luminescence signals	–
B4	–	remarkably stable luminescence signals	–
B5	–	remarkably stable luminescence signals	–
B6	–	remarkably stable luminescence signals	–
B7	–	remarkably stable luminescence signals	luminescence intensity higher than that of conventional GLuc, Renilla luciferase and MpLuc4 (COS-7 cells [3]): about 50 folds
B8	–	remarkably stable luminescence signals	luminescence intensity (initial) (COS-7 cells [4]): slightly low in luminescence intensity; also recorded: relatively low luminescence intensity; luminescence stability / sustainability after substrate injection (COS-7 cells [4]): excellent in luminescence stability; also recorded: extremely higher luminescence sustainability than other artificial luciferases; prolonged enzymatic activity stability [5]: maintained stable enzymatic activity until Day 25; temporal change of luminescence after substrate injection [6]: abrupt increase in luminescence value after 6 minutes
B9	–	remarkably stable luminescence signals	–
B10	–	remarkably stable luminescence signals	luminescence intensity higher than that of conventional GLuc, Renilla luciferase and MpLuc4 (COS-7 cells [3]): about 50 folds
B11	–	–	luminescence intensity higher than that of conventional GLuc, Renilla luciferase and MpLuc4 (COS-7 cells [3]): about 50 folds
